Reference: patent US20160311921A1

Target: farletuzumab
Experiment: cell-based or functional assay

Sequence of farletuzumab (heavy, as listed by the source, chain 1 of 2): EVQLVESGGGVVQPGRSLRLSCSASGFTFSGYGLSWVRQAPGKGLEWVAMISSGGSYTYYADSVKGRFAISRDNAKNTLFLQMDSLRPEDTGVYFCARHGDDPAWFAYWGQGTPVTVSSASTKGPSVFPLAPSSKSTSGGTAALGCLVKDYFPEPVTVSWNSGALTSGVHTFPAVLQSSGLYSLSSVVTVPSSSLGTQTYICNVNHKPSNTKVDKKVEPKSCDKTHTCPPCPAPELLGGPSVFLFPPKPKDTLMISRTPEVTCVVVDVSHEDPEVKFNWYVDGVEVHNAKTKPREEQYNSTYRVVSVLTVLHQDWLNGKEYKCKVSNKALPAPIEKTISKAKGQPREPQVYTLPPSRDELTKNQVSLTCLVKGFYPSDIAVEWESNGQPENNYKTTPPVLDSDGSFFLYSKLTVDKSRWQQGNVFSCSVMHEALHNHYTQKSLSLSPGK
Sequence of farletuzumab (light, as listed by the source, chain 2 of 2): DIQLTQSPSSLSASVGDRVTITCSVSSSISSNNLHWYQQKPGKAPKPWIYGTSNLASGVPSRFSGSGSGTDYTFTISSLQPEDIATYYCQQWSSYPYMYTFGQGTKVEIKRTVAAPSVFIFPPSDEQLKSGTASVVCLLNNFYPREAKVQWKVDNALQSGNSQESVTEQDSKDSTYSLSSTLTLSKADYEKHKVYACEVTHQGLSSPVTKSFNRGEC

inhibition of Farletuzumab ADCC activity (luminescence, Promega ADCC Reporter Bioassay Core Kit, CHO-hFR-α target cells): 50%
Substance: cancer antigen 125 (CA125) (from UniProt Q8WXI7 1-14451)
